Results on one molecule are retold here after patent US20220389095A1 (AGENUS, published 2022).

This assay addresses T1, human TIGIT (human, UniProt Q495A1 22-244).
T1 construct: whole, on cells; The assays used cell-surface TIGIT; also called T-cell immunoreceptor with Ig and ITIM domains; VSIG9
T1 sequence (looked up): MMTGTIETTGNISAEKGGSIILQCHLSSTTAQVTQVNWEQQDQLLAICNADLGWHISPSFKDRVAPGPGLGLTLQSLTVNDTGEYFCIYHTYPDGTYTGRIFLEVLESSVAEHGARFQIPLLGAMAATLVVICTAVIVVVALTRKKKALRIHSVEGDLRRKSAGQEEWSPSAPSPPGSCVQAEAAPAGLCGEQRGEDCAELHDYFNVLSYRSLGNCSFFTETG
In words: flow cytometry on anti-CD3-activated human PBMC, gated on CD4+ and CD8+ T cells. Here is the method:
After four days, the sample plates were centrifuged for two minutes at 2000 rpm and then supernatants were discarded. Samples were blocked with FcγR Block prepared in FACs buffer at 5 μL per 100 μL for 10 minutes. Sample plates were then centrifuged for two minutes at 2000 rpm and the supernatant was discarded. The cells were then resuspended in 100 μL of BA159 or a relevant isotype control antibody. To prepare antibodies, each antibody was diluted to 40 μg/mL in buffer for a final volume of 200 μL. Antibodies were then serially diluted 1 to 4 for a total of 12 dilutions ranging from 40 μg/mL to 0.00000954 μg/mL.
Cells were then resuspended in a cocktail of fluorescently labeled antibodies prepared in FACs buffer. 100 μL of antibody was add per well of a round-bottom 96-well plate. The sample plate was incubated for 20 minutes on ice. Cells were then washed by addition of cold sample buffer, centrifuged for two minutes at 2000 rpm, and supernatants were discarded. This wash was repeated once. […]
Antibody binding was measured by flow cytometry using a BD LSR Fortessa Flow Cytometer. […] 100,000 events were recorded for each sample. Samples were analyzed by sequentially gating on the following populations: FSC-A vs SSC-A, FSC-H vs FSC-A, SSC-A vs LIVE/DEAD, and CD4 vs CD8 Mean fluorescence intensity (MFI) was calculated.
Background: In flow cytometry, cells or beads pass a laser one at a time.

B1: BA159 (antibody, human IgG1, lambda)
heavy: EVQLVQSGAEVKKPGSSVKVSCKASGYTFASYGISWVRQAPGQGLEWMGGITPFFNRVDVAEKFQGRVTITADKSTSTAYIELSSLRSEDTAVYYCARDLRRGGVGDAFDIWGRGTLVTVSSASTKGPSVFPLAPSSKSTSGGTAALGCLVKDYFPEPVTVSWNSGALTSGVHTFPAVLQSSGLYSLSSVVTVPSSSLGTQTYICNVNHKPSNTKVDKRVEPKSCDKTHTCPPCPAPELLGGPDVFLFPPKPKDTLMISRTPEVTCVVVDVSHEDPEVKFNWYVDGVEVHNAKTKPREEQYNSTYRVVSVLTVLHQDWLNGKEYKCKVSNKALPLPEEKTISKAKGQPREPQVYTLPPSREEMTKNQVSLTCLVKGFYPSDIAVEWESNGQPENNYKTTPPVLDSDGSFFLYSKLTVDKSRWQQGNVFSCSVMHEALHNHYTQKSLSLSPGK
light: QSALTQPRSVSGSPGQSVTISCTGTSSDVGSHNYVSWYQQHPGKAPKLMIYEVSYRPSGVSNRFSGSKSGNTASLTISGLQAEDEADYYCSSYTPSSATVFGAGTKLTVLGQPKAAPSVTLFPPSSEELQANKATLVCLISDFYPGAVTVAWKADSSPVKAGVETTTPSKQSNNKYAASSYLSLTPEQWKSHRSYSCQVTHEGSTVEKTVAPTECS
notes: also called anti-TIGIT antibody BA159
Consider B1, for which the binding result is “binds”.
